The results in this text go back to patent publication US20240018502A1.

In this test the target is plasma purified human complement protein C3 (human) (UniProt P01024). In words: cell-based or functional assay.
Sequence of plasma purified human complement protein C3 (human) (P01024 23-667, chain 1 of 2): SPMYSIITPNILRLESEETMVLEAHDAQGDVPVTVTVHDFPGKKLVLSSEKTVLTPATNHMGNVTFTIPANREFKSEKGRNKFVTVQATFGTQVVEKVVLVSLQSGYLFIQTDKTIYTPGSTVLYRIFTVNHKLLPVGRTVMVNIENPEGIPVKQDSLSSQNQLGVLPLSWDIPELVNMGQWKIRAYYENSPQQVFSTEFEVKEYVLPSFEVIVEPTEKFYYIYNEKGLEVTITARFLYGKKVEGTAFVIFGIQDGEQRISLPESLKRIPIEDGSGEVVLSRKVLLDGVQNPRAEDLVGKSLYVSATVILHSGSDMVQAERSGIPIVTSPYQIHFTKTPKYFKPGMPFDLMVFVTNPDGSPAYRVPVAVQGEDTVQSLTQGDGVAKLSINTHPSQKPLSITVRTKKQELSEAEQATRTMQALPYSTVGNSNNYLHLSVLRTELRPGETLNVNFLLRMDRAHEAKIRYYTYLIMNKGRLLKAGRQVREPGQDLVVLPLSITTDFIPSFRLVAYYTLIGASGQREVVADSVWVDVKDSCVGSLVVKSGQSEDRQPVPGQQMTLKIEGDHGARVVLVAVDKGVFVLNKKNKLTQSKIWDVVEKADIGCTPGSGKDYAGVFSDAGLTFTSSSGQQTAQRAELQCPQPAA
Sequence of plasma purified human complement protein C3 (human) (P01024 672-1663, chain 2 of 2): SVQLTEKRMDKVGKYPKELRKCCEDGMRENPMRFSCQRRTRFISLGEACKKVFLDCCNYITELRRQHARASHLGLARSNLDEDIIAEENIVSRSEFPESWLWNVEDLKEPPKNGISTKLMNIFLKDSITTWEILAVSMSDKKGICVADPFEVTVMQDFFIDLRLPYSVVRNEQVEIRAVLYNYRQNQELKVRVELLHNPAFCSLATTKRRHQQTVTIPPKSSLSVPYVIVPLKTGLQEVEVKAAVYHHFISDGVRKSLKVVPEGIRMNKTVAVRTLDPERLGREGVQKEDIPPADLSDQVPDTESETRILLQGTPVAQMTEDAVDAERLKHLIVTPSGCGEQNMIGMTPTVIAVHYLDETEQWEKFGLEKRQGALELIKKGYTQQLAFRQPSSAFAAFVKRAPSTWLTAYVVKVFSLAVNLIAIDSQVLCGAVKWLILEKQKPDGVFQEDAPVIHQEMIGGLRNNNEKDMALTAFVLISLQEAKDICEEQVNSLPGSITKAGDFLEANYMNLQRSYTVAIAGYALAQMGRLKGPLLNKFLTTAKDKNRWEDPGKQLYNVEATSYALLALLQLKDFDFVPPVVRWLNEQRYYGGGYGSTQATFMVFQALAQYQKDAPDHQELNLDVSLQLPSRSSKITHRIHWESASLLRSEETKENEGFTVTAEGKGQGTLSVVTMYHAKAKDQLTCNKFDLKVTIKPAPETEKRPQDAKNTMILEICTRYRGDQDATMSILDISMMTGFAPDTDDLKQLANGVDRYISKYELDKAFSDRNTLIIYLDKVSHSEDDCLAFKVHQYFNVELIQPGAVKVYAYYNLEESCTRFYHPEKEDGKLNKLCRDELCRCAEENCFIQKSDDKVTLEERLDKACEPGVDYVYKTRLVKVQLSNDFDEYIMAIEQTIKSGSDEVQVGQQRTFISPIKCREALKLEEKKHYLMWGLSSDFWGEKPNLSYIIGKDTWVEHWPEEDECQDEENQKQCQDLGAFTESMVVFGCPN

B1: MTSP-1 Q38R/I41S/D60bH/F60eI/ins97aE/F97T/T98G/F99L/C122S/Q175L/Q192E (enzyme)
chain: VVGGTDADEGEWPWQVSLHALGRGHSCGASLISPNWLVSAAHCYIDHRGIRYSDPTQWTAFLGLHDQSQRSAPGVQERRLKRIISHPFFNDTEGLDYDIALLELEKPAEYSSMVRPISLPDASHVFPAGKAIWVTGWGHTQYGGTGALILQKGEIRVINQTTCENLLPQLITPRMMCVGFLSGGVDSCEGDSGGPLSSVEADGRIFQAGVVSWGDGCAQRNKPGVYTRLPLFRDWIKENTGV
For the molecule B1, the EC50 of hC3 cleavage was 27.3 nM.

B2: MTSP-1 Q38E/I41S/D60bV/F60eK/ins97aE/F97T/T98G/F99L/C122S/G151N/Q175L/Q192I (enzyme)
chain: VVGGTDADEGEWPWQVSLHALGEGHSCGASLISPNWLVSAAHCYIDVRGKRYSDPTQWTAFLGLHDQSQRSAPGVQERRLKRIISHPFFNDTEGLDYDIALLELEKPAEYSSMVRPISLPDASHVFPAGKAIWVTGWGHTQYGGTNALILQKGEIRVINQTTCENLLPQLITPRMMCVGFLSGGVDSCIGDSGGPLSSVEADGRIFQAGVVSWGDGCAQRNKPGVYTRLPLFRDWIKENTGV
In turn, B2 displayed an EC50 of hC3 cleavage of 19.1 nM.

B3: MTSP-1 Q38H/I41A/D60bV/F60eR/Y60gW/ins97aE/F97T/T98G/F99L/C122S/Q175L/Q192D (enzyme)
chain: VVGGTDADEGEWPWQVSLHALGHGHACGASLISPNWLVSAAHCYIDVRGRRWSDPTQWTAFLGLHDQSQRSAPGVQERRLKRIISHPFFNDTEGLDYDIALLELEKPAEYSSMVRPISLPDASHVFPAGKAIWVTGWGHTQYGGTGALILQKGEIRVINQTTCENLLPQLITPRMMCVGFLSGGVDSCDGDSGGPLSSVEADGRIFQAGVVSWGDGCAQRNKPGVYTRLPLFRDWIKENTGV
As for B3, the EC50 of hC3 cleavage stood at 2.37 nM.

B4: MTSP-1 Q38H/I41A/D60bA/F60eR/F97T/ins97aE/T98G/F99L/C122S/Q175L/Q192E (enzyme)
chain: VVGGTDADEGEWPWQVSLHALGHGHACGASLISPNWLVSAAHCYIDARGRRYSDPTQWTAFLGLHDQSQRSAPGVQERRLKRIISHPFFNDTEGLDYDIALLELEKPAEYSSMVRPISLPDASHVFPAGKAIWVTGWGHTQYGGTGALILQKGEIRVINQTTCENLLPQLITPRMMCVGFLSGGVDSCEGDSGGPLSSVEADGRIFQAGVVSWGDGCAQRNKPGVYTRLPLFRDWIKENTGV
In the case of B4, the EC50 of hC3 cleavage is 12 nM.

B5: MTSP-1 Q38R/I41E/ins97aE/F97T/T98G/F99L/C122S/Q175L/Q192T (enzyme)
chain: VVGGTDADEGEWPWQVSLHALGRGHECGASLISPNWLVSAAHCYIDDRGFRYSDPTQWTAFLGLHDQSQRSAPGVQERRLKRIISHPFFNDTEGLDYDIALLELEKPAEYSSMVRPISLPDASHVFPAGKAIWVTGWGHTQYGGTGALILQKGEIRVINQTTCENLLPQLITPRMMCVGFLSGGVDSCTGDSGGPLSSVEADGRIFQAGVVSWGDGCAQRNKPGVYTRLPLFRDWIKENTGV
Molecule B5 yielded an EC50 of hC3 cleavage of 63.3 nM.

B6: MTSP-1 ins97aV/F97D/T98P/F99L/C122S/G151N/Q175L/Q192G (enzyme)
chain: VVGGTDADEGEWPWQVSLHALGQGHICGASLISPNWLVSAAHCYIDDRGFRYSDPTQWTAFLGLHDQSQRSAPGVQERRLKRIISHPFFNDDVPLDYDIALLELEKPAEYSSMVRPISLPDASHVFPAGKAIWVTGWGHTQYGGTNALILQKGEIRVINQTTCENLLPQLITPRMMCVGFLSGGVDSCGGDSGGPLSSVEADGRIFQAGVVSWGDGCAQRNKPGVYTRLPLFRDWIKENTGV
B6 showed an EC50 of hC3 cleavage of 38.5 nM.

B7: MTSP-1 F97D/ins97aV/T98P/F99L/C122S/G151N/Q175L/Q192E (enzyme)
chain: VVGGTDADEGEWPWQVSLHALGQGHICGASLISPNWLVSAAHCYIDDRGFRYSDPTQWTAFLGLHDQSQRSAPGVQERRLKRIISHPFFNDDVPLDYDIALLELEKPAEYSSMVRPISLPDASHVFPAGKAIWVTGWGHTQYGGTNALILQKGEIRVINQTTCENLLPQLITPRMMCVGFLSGGVDSCEGDSGGPLSSVEADGRIFQAGVVSWGDGCAQRNKPGVYTRLPLFRDWIKENTGV
With B7, the EC50 of hC3 cleavage turned out to be 194 nM.

B8: MTSP-1 Q38H/I41S/D60bA/F60eV/Y60gF/ins97aE/F97T/T98G/F99L/C122S/G151N/Q175L/Q192T (enzyme)
chain: VVGGTDADEGEWPWQVSLHALGHGHSCGASLISPNWLVSAAHCYIDARGVRFSDPTQWTAFLGLHDQSQRSAPGVQERRLKRIISHPFFNDTEGLDYDIALLELEKPAEYSSMVRPISLPDASHVFPAGKAIWVTGWGHTQYGGTNALILQKGEIRVINQTTCENLLPQLITPRMMCVGFLSGGVDSCTGDSGGPLSSVEADGRIFQAGVVSWGDGCAQRNKPGVYTRLPLFRDWIKENTGV
Consider B8, for which the EC50 of hC3 cleavage amounted to 14.2 nM.

B9: MTSP-1 Q38E/I41S/D60bV/F60eK/F97T/ins97aE/T98G/F99L/C122S/Q175L/Q192I (enzyme)
chain: VVGGTDADEGEWPWQVSLHALGEGHSCGASLISPNWLVSAAHCYIDVRGKRYSDPTQWTAFLGLHDQSQRSAPGVQERRLKRIISHPFFNDTEGLDYDIALLELEKPAEYSSMVRPISLPDASHVFPAGKAIWVTGWGHTQYGGTGALILQKGEIRVINQTTCENLLPQLITPRMMCVGFLSGGVDSCIGDSGGPLSSVEADGRIFQAGVVSWGDGCAQRNKPGVYTRLPLFRDWIKENTGV
Regarding B9, the EC50 of hC3 cleavage came out at 20.4 nM.

B10: MTSP-1 Q38E/I41S/D60bH/F60eI/ins97aE/F97T/T98G/F99L/C122S/G151N/Q175L/Q192V (enzyme)
chain: VVGGTDADEGEWPWQVSLHALGEGHSCGASLISPNWLVSAAHCYIDHRGIRYSDPTQWTAFLGLHDQSQRSAPGVQERRLKRIISHPFFNDTEGLDYDIALLELEKPAEYSSMVRPISLPDASHVFPAGKAIWVTGWGHTQYGGTNALILQKGEIRVINQTTCENLLPQLITPRMMCVGFLSGGVDSCVGDSGGPLSSVEADGRIFQAGVVSWGDGCAQRNKPGVYTRLPLFRDWIKENTGV
In the case of B10, the EC50 of hC3 cleavage is 11.5 nM.

B11: MTSP-1 Q38R/I41S/D60bH/F60eI/ins97aE/F97T/T98G/F99L/C122S/G151N/Q175L/Q192E (enzyme)
chain: VVGGTDADEGEWPWQVSLHALGRGHSCGASLISPNWLVSAAHCYIDHRGIRYSDPTQWTAFLGLHDQSQRSAPGVQERRLKRIISHPFFNDTEGLDYDIALLELEKPAEYSSMVRPISLPDASHVFPAGKAIWVTGWGHTQYGGTNALILQKGEIRVINQTTCENLLPQLITPRMMCVGFLSGGVDSCEGDSGGPLSSVEADGRIFQAGVVSWGDGCAQRNKPGVYTRLPLFRDWIKENTGV
Take B11: the EC50 of hC3 cleavage came out at 32.9 nM.

B12: MTSP-1 Q38G/H40R/I41H/D60bN/F60eT/F97D/F99L/C122S/Q175L/Q192G (enzyme)
chain: VVGGTDADEGEWPWQVSLHALGGGRHCGASLISPNWLVSAAHCYIDNRGTRYSDPTQWTAFLGLHDQSQRSAPGVQERRLKRIISHPFFNDDTLDYDIALLELEKPAEYSSMVRPISLPDASHVFPAGKAIWVTGWGHTQYGGTGALILQKGEIRVINQTTCENLLPQLITPRMMCVGFLSGGVDSCGGDSGGPLSSVEADGRIFQAGVVSWGDGCAQRNKPGVYTRLPLFRDWIKENTGV
The molecule B12 displayed an EC50 of hC3 cleavage of 11.9 nM.

B13: MTSP-1 Q38E/H40R/I41H/D60bK/F60eT/F97D/F99L/C122S/Q175L/Q192G (enzyme)
chain: VVGGTDADEGEWPWQVSLHALGEGRHCGASLISPNWLVSAAHCYIDKRGTRYSDPTQWTAFLGLHDQSQRSAPGVQERRLKRIISHPFFNDDTLDYDIALLELEKPAEYSSMVRPISLPDASHVFPAGKAIWVTGWGHTQYGGTGALILQKGEIRVINQTTCENLLPQLITPRMMCVGFLSGGVDSCGGDSGGPLSSVEADGRIFQAGVVSWGDGCAQRNKPGVYTRLPLFRDWIKENTGV
Consider B13, for which the EC50 of hC3 cleavage is 16.6 nM.

B14: MTSP-1 Q38G/H40R/I41H/D60bK/F60eT/F97D/F99L/C122S/Q175L/Q192G (enzyme)
chain: VVGGTDADEGEWPWQVSLHALGGGRHCGASLISPNWLVSAAHCYIDKRGTRYSDPTQWTAFLGLHDQSQRSAPGVQERRLKRIISHPFFNDDTLDYDIALLELEKPAEYSSMVRPISLPDASHVFPAGKAIWVTGWGHTQYGGTGALILQKGEIRVINQTTCENLLPQLITPRMMCVGFLSGGVDSCGGDSGGPLSSVEADGRIFQAGVVSWGDGCAQRNKPGVYTRLPLFRDWIKENTGV
For the molecule B14, the EC50 of hC3 cleavage was determined as 21.3 nM.
